In the RNAGym collection of RNA variant scans (doi:10.1093/molbev/msab373):

B1: Azoarcus group I ribozyme (parent)
chain: GUGCCUUGCGCCGGGAAACCACGCAAGGGAUGGUGUCAAAUUCGGCGAAACCUAAGCGCCCGCCCGGGCGUAUGGCAACGCCGAGCCAAGCUUCGGCGCCUGCGCCGAUGAAGGUGUAGAGACUAGACGGCACCCACCUAAGGCAAACGCUAUGGUGAAGGCAUAGUCCAGGGAGUGGCGAAAGUCACACAAACCGG

Variants of: B1
Experiment: reverse-splicing fitness (ratio to wild type); higher = more active; in vitro selection; Mg2+ level not given
Method in brief: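 An in vitro group I ribozyme library with randomized positions was T7-transcribed and gel-purified. In triplicate, 10 pmol RNA in EPPS pH 7.5 was reacted with 50 pmoles of a 30-nt RNA substrate for 1 h at 37 °C across several added MgCl2 levels (1–48 mM), then stopped with EDTA. Products were reverse transcribed from a substrate-complementary primer, PCR-amplified and sequenced (HiSeq 4000). Fitness is a variant's read proportion after selection over that before, normalised to wild type.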

Variant	reverse-splicing fitness
GUGCCUUGCGCCGGGAAACCACGCAAGGGAUGGUGUCAAAUUCGGCGAAACCUAAGCGCCCGCCCGGGCGUAUGGCAACGCUGAGCCAAGCUUCGGCGCCUGCGCCGAUGCAGGUGUAGCGACUAGACGGCACCCACCUAAGGCUAACGGUAUGGUGAAGGCAUAGUCUAGGGAGAGGCGAAAGUCACACAAACCGG [C82U A111C A120C A145U C150G C169U U176A]	0.00839
GUGCCUUGCGCCGGGAAACCACGCAAGGGAUGGUGUCAAAUUCGGCGAAACCUAAGCGCCCGCCCGGGCGUAUGGCAACGCUGAGCCAAGCUUCGGCGCCUGCGCCGAUGCAGGUGUAGCGACUAGACGGCACCCACCUAAGGCUAACGGUAUGGUGAAGGCAUAGUCUAGGGAGGGGCGAAAGUCACACAAACCGG [C82U A111C A120C A145U C150G C169U U176G]	0.00581
GUGCCUUGCGCCGGGAAACCACGCAAGGGAUGGUGUCAAAUUCGGCGAAACCUAAGCGCCCGCCCGGGCGUAUGGCAACGCUGAGCCAAGCUUCGGCGCCUGCGCCGAUGCAGGUGUAGCGACUAGACGGCACCCACCUAAGGCUAACGGUAUGGUGAAGGCAUAGUCAAGGGAGAGGCGAAAGUCACACAAACCGG [C82U A111C A120C A145U C150G C169A U176A]	0.00888
GUGCCUUGCGCCGGGAAACCACGCAAGGGAUGGUGUCAAAUUCGGCGAAACCUAAGCGCCCGCCCGGGCGUAUGGCAACGCUGAGCCAAGCUUCGGCGCCUGCGCCGAUGCAGGUGUAGCGACUAGACGGCACCCACCUAAGGCUAACGGUAUGGUGAAGGCAUAGUCAAGGGAGGGGCGAAAGUCACACAAACCGG [C82U A111C A120C A145U C150G C169A U176G]	0.00632
GUGCCUUGCGCCGGGAAACCACGCAAGGGAUGGUGUCAAAUUCGGCGAAACCUAAGCGCCCGCCCGGGCGUAUGGCAACGCUGAGCCAAGCUUCGGCGCCUGCGCCGAUGCAGGUGUAGCGACUAGACGGCACCCACCUAAGGCUAACGGUAUGGUGAAGGCAUAGUCAAGGGAGCGGCGAAAGUCACACAAACCGG [C82U A111C A120C A145U C150G C169A U176C]	0.00938
GUGCCUUGCGCCGGGAAACCACGCAAGGGAUGGUGUCAAAUUCGGCGAAACCUAAGCGCCCGCCCGGGCGUAUGGCAACGCUGAGCCAAGCUUCGGCGCCUGCGCCGAUGCAGGUGUAGCGACUAGACGGCACCCACCUAAGGCUAACGUUAUGGUGAAGGCAUAGUCCAGGGAGUGGCGAAAGUCACACAAACCGG [C82U A111C A120C A145U C150U]	0.0199
GUGCCUUGCGCCGGGAAACCACGCAAGGGAUGGUGUCAAAUUCGGCGAAACCUAAGCGCCCGCCCGGGCGUAUGGCAACGCUGAGCCAAGCUUCGGCGCCUGCGCCGAUGCAGGUGUAGCGACUAGACGGCACCCACCUAAGGCUAACGUUAUGGUGAAGGCAUAGUCCAGGGAGCGGCGAAAGUCACACAAACCGG [C82U A111C A120C A145U C150U U176C]	0.0144
GUGCCUUGCGCCGGGAAACCACGCAAGGGAUGGUGUCAAAUUCGGCGAAACCUAAGCGCCCGCCCGGGCGUAUGGCAACGCUGAGCCAAGCUUCGGCGCCUGCGCCGAUGCAGGUGUAGCGACUAGACGGCACCCACCUAAGGCUAACGUUAUGGUGAAGGCAUAGUCCAGGGAGAGGCGAAAGUCACACAAACCGG [C82U A111C A120C A145U C150U U176A]	0.0105
GUGCCUUGCGCCGGGAAACCACGCAAGGGAUGGUGUCAAAUUCGGCGAAACCUAAGCGCCCGCCCGGGCGUAUGGCAACGCUGAGCCAAGCUUCGGCGCCUGCGCCGAUGCAGGUGUAGCGACUAGACGGCACCCACCUAAGGCUAACGUUAUGGUGAAGGCAUAGUCCAGGGAGGGGCGAAAGUCACACAAACCGG [C82U A111C A120C A145U C150U U176G]	0.00604
GUGCCUUGCGCCGGGAAACCACGCAAGGGAUGGUGUCAAAUUCGGCGAAACCUAAGCGCCCGCCCGGGCGUAUGGCAACGCUGAGCCAAGCUUCGGCGCCUGCGCCGAUGCAGGUGUAGCGACUAGACGGCACCCACCUAAGGCUAACGUUAUGGUGAAGGCAUAGUCGAGGGAGGGGCGAAAGUCACACAAACCGG [C82U A111C A120C A145U C150U C169G U176G]	0.00521
GUGCCUUGCGCCGGGAAACCACGCAAGGGAUGGUGUCAAAUUCGGCGAAACCUAAGCGCCCGCCCGGGCGUAUGGCAACGCUGAGCCAAGCUUCGGCGCCUGCGCCGAUGCAGGUGUAGCGACUAGACGGCACCCACCUAAGGCUAACGUUAUGGUGAAGGCAUAGUCGAGGGAGAGGCGAAAGUCACACAAACCGG [C82U A111C A120C A145U C150U C169G U176A]	0.0126
GUGCCUUGCGCCGGGAAACCACGCAAGGGAUGGUGUCAAAUUCGGCGAAACCUAAGCGCCCGCCCGGGCGUAUGGCAACGCUGAGCCAAGCUUCGGCGCCUGCGCCGAUGCAGGUGUAGCGACUAGACGGCACCCACCUAAGGCUAACGUUAUGGUGAAGGCAUAGUCGAGGGAGCGGCGAAAGUCACACAAACCGG [C82U A111C A120C A145U C150U C169G U176C]	0.0142
GUGCCUUGCGCCGGGAAACCACGCAAGGGAUGGUGUCAAAUUCGGCGAAACCUAAGCGCCCGCCCGGGCGUAUGGCAACGCUGAGCCAAGCUUCGGCGCCUGCGCCGAUGCAGGUGUAGCGACUAGACGGCACCCACCUAAGGCUAACGGUAUGGUGAAGGCAUAGUCCAGGGAGAGGCGAAAGUCACACAAACCGG [C82U A111C A120C A145U C150G U176A]	0.00578
GUGCCUUGCGCCGGGAAACCACGCAAGGGAUGGUGUCAAAUUCGGCGAAACCUAAGCGCCCGCCCGGGCGUAUGGCAACGCUGAGCCAAGCUUCGGCGCCUGCGCCGAUGCAGGUGUAGCGACUAGACGGCACCCACCUAAGGCUAACGGUAUGGUGAAGGCAUAGUCCAGGGAGCGGCGAAAGUCACACAAACCGG [C82U A111C A120C A145U C150G U176C]	0.00923
GUGCCUUGCGCCGGGAAACCACGCAAGGGAUGGUGUCAAAUUCGGCGAAACCUAAGCGCCCGCCCGGGCGUAUGGCAACGCUGAGCCAAGCUUCGGCGCCUGCGCCGAUGCAGGUGUAGCGACUAGACGGCACCCACCUAAGGCUAACGGUAUGGUGAAGGCAUAGUCCAGGGAGGGGCGAAAGUCACACAAACCGG [C82U A111C A120C A145U C150G U176G]	0.00321
